The results in this text go back to paper PMC9328677.

This series deals with T1, APLF acidic domain (APLFAD) WT (Homo sapiens, UniProt Q8IW19 450-511).
T1 sequence: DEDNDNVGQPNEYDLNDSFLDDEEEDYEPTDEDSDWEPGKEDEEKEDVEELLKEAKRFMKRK
Put plainly: EMSA (native PAGE, cross-linked); APLFAD alone, no histones; Native PAGE EMSA with cross-linking; EMSA and NAQ buffer, salt and temperature not in material (general assay buffer 25 mM NaPi pH 7.0, 300 mM NaCl). To be noted: protein: recombinant; tags: TAMRA-labelled; His-GST or His-SUMO fusion for expression (TEV cleaved; SUMO may be retained); chain copies: 2; blunt. (A gel shift assay detects complexes by their altered migration in electrophoresis.)

B1: 49-bp DNA, centre of 601 (dsDNA)
DNA 1: GCACCGCTTAAACGCACGTACGCGCTGTCCCCCGCGTTTTAACCGCCAA
DNA 2: TTGGCGGTTAAAACGCGGGGGACAGCGCGTACGTGCGTTTAAGCGGTGC
For the molecule B1, the binding result was “no binding”.
